Measured values from IntAct's records for PubMed 20679240.

B1: Circadian clock oscillator protein KaiC (Synechococcus elongatus (strain PCC 7942)), Q79PF4 (parent)
chain: MTSAEMTSPNNNSEHQAIAKMRTMIEGFDDISHGGLPIGRSTLVSGTSGTGKTLFSIQFLYNGIIEFDEPGVFVTFEETPQDIIKNARSFGWDLAKLVDEGKLFILDASPDPEGQEVVGGFDLSALIERINYAIQKYRARRVSIDSVTSVFQQYDASSVVRRELFRLVARLKQIGATTVMTTERIEEYGPIARYGVEEFVSDNVVILRNVLEGERRRRTLEILKLRGTSHMKGEYPFTITDHGINIFPLGAMRLTQRSSNVRVSSGVVRLDEMCGGGFFKDSIILATGATGTGKTLLVSRFVENACANKERAILFAYEESRAQLLRNAYSWGMDFEEMERQNLLKIVCAYPESAGLEDHLQIIKSEINDFKPARIAIDSLSALARGVSNNAFRQFVIGVTGYAKQEEITGLFTNTSDQFMGAHSITDSHISTITDTIILLQYVEIRGEMSRAINVFKMRGSWHDKAIREFMISDKGPDIKDSFRNFERIISGSPTRITVDEKSELSRIVRGVQEKGPES
partner: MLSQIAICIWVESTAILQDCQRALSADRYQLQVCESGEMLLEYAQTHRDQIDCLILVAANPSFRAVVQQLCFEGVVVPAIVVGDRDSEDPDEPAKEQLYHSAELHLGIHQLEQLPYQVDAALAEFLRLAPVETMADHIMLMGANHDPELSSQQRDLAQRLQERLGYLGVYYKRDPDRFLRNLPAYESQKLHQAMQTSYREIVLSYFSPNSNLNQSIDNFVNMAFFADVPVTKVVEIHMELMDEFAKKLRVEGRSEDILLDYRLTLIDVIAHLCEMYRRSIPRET
B2: Circadian clock oscillator protein KaiC (Synechococcus elongatus (strain PCC 7942)), Q79PF4 (parent)
chain: B1 chain
partner: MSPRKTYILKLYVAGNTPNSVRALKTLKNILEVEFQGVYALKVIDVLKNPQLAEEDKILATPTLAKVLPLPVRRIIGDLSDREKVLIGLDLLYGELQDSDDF

Variants of: B1
Settings: with kaia_syne7 kaiA

Variant | effect of a mutation on the interaction
MTSAEMTSPNNNSEHQAIAKMRTMIEGFDDISHGGLPIGRSTLVSGTSGTGKTLFSIQFLYNGIIEFDEPGVFVTFEETPQDIIKNARSFGWDLAKLVDEGKLFILDASPDPEGQEVVGGFDLSALIERINYAIQKYRARRVSIDSVTSVFQQYDASSVVRRELFRLVARLKQIGATTVMTTERIEEYGPIARYGVEEFVSDNVVILRNVLEGERRRRTLEILKLRGTSHMKGEYPFTITDHGINIFPLGAMRLTQRSSNVRVSSGVVRLDEMCGGGFFKDSIILATGATGTGKTLLVSRFVENACANKERAILFAYEESRAQLLRNAYSWGMDFEEMERQNLLKIVCAYPESAGLEDHLQIIKSEINDFKPARIAIDSLSALARGVSNNAFRQFVIGVTGYAKQEEITGLFTNTSDQFMGAHSITDSHIEEITDTIILLQYVEIRGEMSRAINVFKMRGSWHDKAIREFMISDKGPDIKDSFRNFERIISGSPTRITVDEKSELSRIVRGVQEKGPES [S431E;T432E] | increasing interaction strength
S431A;T432A | decreasing interaction strength

Variants of: B2
Settings: with kaib_syne7 kaiB

Variant | effect of a mutation on the interaction
MTSAEMTSPNNNSEHQAIAKMRTMIEGFDDISHGGLPIGRSTLVSGTSGTGKTLFSIQFLYNGIIEFDEPGVFVTFEETPQDIIKNARSFGWDLAKLVDEGKLFILDASPDPEGQEVVGGFDLSALIERINYAIQKYRARRVSIDSVTSVFQQYDASSVVRRELFRLVARLKQIGATTVMTTERIEEYGPIARYGVEEFVSDNVVILRNVLEGERRRRTLEILKLRGTSHMKGEYPFTITDHGINIFPLGAMRLTQRSSNVRVSSGVVRLDEMCGGGFFKDSIILATGATGTGKTLLVSRFVENACANKERAILFAYEESRAQLLRNAYSWGMDFEEMERQNLLKIVCAYPESAGLEDHLQIIKSEINDFKPARIAIDSLSALARGVSNNAFRQFVIGVTGYAKQEEITGLFTNTSDQFMGAHSITDSHIATITDTIILLQYVEIRGEMSRAINVFKMRGSWHDKAIREFMISDKGPDIKDSFRNFERIISGSPTRITVDEKSELSRIVRGVQEKGPES [S431A] | disrupting interaction strength
S431D;T432A | disrupting interaction strength
S431A;T432A | disrupting interaction strength
S431A;T432E | disrupting interaction strength
